Source: patent US6001823A, “Treatment or prophylaxis of diseases caused by pilus-forming bacteria” (priority 1995, dated 1999)
Entries after “also recorded” stand apart in the source; their conditions may differ.

Columns and labels:
[1] = Water solubility of peptides; format: physicochemical; set-up: key: *: Water insoluble peptides
[2] = target: T1, PapD (Escherichia coli, UniProt P15319); assay: ELISA: peptide inhibition of PapD binding to MBP-G1'-140' fusion protein; set-up: species or system E. coli; conditions: PapD preincubated with peptide at 1:25 ratio
T1 sequence (P15319 22-239): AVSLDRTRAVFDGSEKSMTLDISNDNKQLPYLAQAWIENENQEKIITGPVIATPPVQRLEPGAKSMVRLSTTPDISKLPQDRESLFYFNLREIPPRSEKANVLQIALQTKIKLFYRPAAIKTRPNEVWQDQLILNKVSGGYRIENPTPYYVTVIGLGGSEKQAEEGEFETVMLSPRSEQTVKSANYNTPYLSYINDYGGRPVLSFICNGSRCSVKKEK
Protocol: The ability of the peptides to inhibit the binding of PapD to the MBP-G1'-140' fusion protein was then investigated using the following ELISA test:
Stock solutions of MBP-G1'-140' proteins in PBS were diluted to 0.1 μM with PBS. The wells of microtiter plates were coated with 50 μl of the protein solutions overnight at 4° C. The wells were washed with PBS, and blocked with 200 μl of 3% bovine serum albumin (BSA) in PBS for 2 hours at 25° C. The plates were washed vigorously three times with PBS and incubated with 50 μl of 1-5 μM PapD proteins in 3% BSA-PBS for 45 minutes at 25° C. The PapD was preincubated with each of the peptides at a 1:25 ratio for 30 min before being added to the wells. After three washings with PBS, the wells were incubated with a 1:500 dilution of rabbit anti-PapD antiserum in 3% BSA-PBS for 45 minutes at 25° C. After three washings with PBS, the wells were incubated with a 1:1000 dilution of goat antiserum to rabbit IgG coupled to alkaline phosphatase in 3% BSA-PBS for 45 minutes at 25° C. After three washings with PBS and three washings with developing buffer (10 mM diethanolamine, 0.5 mM MgCl2), 50 μl filtered 1 mg/ml p-nitrophenyl phosphate in developing buffer was added, the reaction was incubated for 1 hour or longer if necessary in the dark at 25° C., and the absorbance at 405 nm was read.

[3] = target: T1, PapD; assay: ELISA: PapD binding to peptides coated on microtiter wells; set-up: made in house; species or system E. coli; conditions: for binding of PapD to immobilized peptide: peptide coated on microtiter wells, ELISA; for reduction of binding of PapD to the immobilized peptide: variant of the PapG carboxyl terminal peptide
Protocol: The residues in the peptides were numbered starting with the carboxyl terminal residue as 1, and ending with the amino terminal residue. Peptides were also synthesized which deviated in length (G1'-16'WT, G1'-11'WT, G1'-7'WT) or sequence (G2'-21'amide, G1'-19'SV, G1'-19'NH2) from the wild type PapG carboxyl terminal sequence. Using an enzyme-linked immunosorbent assay (ELISA), we tested the ability of PapD to bind to each peptide coated on wells of microtiter plates:
5 mg/ml stock solutions of peptides in water or 50% acetic acid were diluted to a concentration of 2.5 pmol/50 μl in PBS. 50 μl of the peptide solution was coated overnight onto microtiter wells (Nunc-Immuno Plate Maxisorp) at 4° C. The solutions in the plates were discarded, and the wells were blocked with 200 μl 3% bovine serum albumin (BSA, Sigma) in PBS (120 mM NaCl/2.7 mM KCl/10 mM phosphate buffer salts, pH 7.4) for 2 hours at 25° C. The plates were washed vigorously 3 times with PBS and incubated with 50 μl of the indicated amount of purified PapD (Lindberg et al, 1989). After 3 washes with PBS, the wells were incubated with a 1:500 dilution of anti-PapD rabbit antiserum (Lindberg et al, 1989) in 3% BSA/PBS for 45 min. at 25° C. After 3 washes with PBS, the wells were incubated with a 1:1000 dilution of goat anti-rabbit IgG coupled to alkaline phosphatase (Sigma) in 3% BSA/PBS for 45 min. at 25° C. Following 3 washes with PBS and 3 washes with developing buffer (10 mM diethanolamine pH 9.5, 0,5 mM MgCl2), 50 μl filtered p-nitrophenyl phosphate substrate (Sigma) in developing buffer (10 mg/ml) was added. The absorbance at 405 nm was read after 60 min of incubation in the dark at 25° C.

[4] = target: T1, PapD; assay: Soluble inhibition ELISA: peptide inhibition of PapD binding to G1'-19'WT-coated wells; set-up: made in house; species or system E. coli; conditions: for % Inhibition: 25-fold molar excess of peptide, 100 pmol/well PapD, G1'-19'WT-coated wells; for inhibition of PapD binding to immobilized G1'-19'WT by soluble peptide: peptide in solution
Protocol: In addition, the ability of water-soluble peptides to inhibit PapD binding to G1'-19'WT-coated wells in a soluble inhibition ELISA were tested, since peptide conformations may have been affected by binding to the plastic microtiter plates:
Microtiter wells were coated overnight at 4° C. with 50 μl of 2,5 pmol/50 μl of the G1'-19'WT peptide. The wells were washed with PBS and blocked with 3% bovine serum albumin (BSA). A 25-fold molar excess of each test peptide was pre-incubated with 100 pmoles PapD for 30 min. and the PapD-peptide solution was then added to the coated wells and incubated at 25° C. for 45 min in the presence of 3% BSA/PBS. The subsequent primary antibody, secondary antibody and developing steps are described above. The ability of the peptides to inhibit binding of PapD to the G1'-19'WT peptide was calculated by dividing the amount of PapD binding in the presence of peptide with the amount of PapD binding in the presence of water. 0% inhibition includes values where binding was greater than that of PapD pre-incubated with H2 O.
The % inhibition represents the percentage of PapD binding in the presence of the peptide compared to in the presence of water and are the average of two experiments performed duplicate: […]

[5] = target: T1, PapD; assay: Protection of PapD against tryptic cleavage by peptides; format: biochemical, E. coli; set-up: made in house; conditions: PapD preincubated with 20-fold molar excess of peptide
Protocol: A Lower: The rate of trypsin cleavage of PapD decreased upon preincubation with the G1'-19'WT, G1'-16'WT or K1'-19'WT peptides, but the G2'-21'amide peptide had no effect. 50 μg of purified PapD was preincubated for 15 min at 25° C. with a 20-fold molar excess of G1'-19'WT, G1'-16'WT, K1'-19'WT or G2'-21'amide peptides (any trypsin cleavage sites in these peptides occur at their amino termini where they were predicted not to interfere with PapD), or an equivalent volume of water. Each sample was then incubated at 37° C. with 3.2 μg of trypsin. Aliquots were removed after 0, 5, 10, 20, 30 and 40 min and boiled in SDS-PAGE sample buffer to stop the digestion. The samples were applied to 15% SDS-PAGE gels and the amount of full-length PapD remaining was determined by densitometry of Coomassie blue stained bands corresponding to full-length PapD which are shown.
400 μg of PapD was partially digested by incubation with either 4,5 μg trypsin or 0.45 μg chymotrypsin on PBS for 20 min. at 37° C. The PapD digests were applied to a C-18 HPLC column (Beckman) and 2 major fragments were eluted with a 0-100% acetonitrile gradient in 0.01% trifluoroacetic acid. The PapD fragments were identified by their molecular weight on SDS-PAGE and amino-terminal sequencing. The N-terminal amino acid sequences of the approximately 14 kDa tryptic and chymotryptic fragments were identified as residues 100-108 and 104-109 of PapD, respectively, corresponding to cleavage after Lys-99 (for trypsin) and Leu-103 (for chymotrypsin). The N-terminal sequences of the 11 and 12 kDa bands in the digests were identical to the N-terminal sequence of PapD.

[6] = target: T2, PapD-PapG complex (Escherichia coli, UniProt P15319); assay: Reconstitution assay: restoration of PapD-PapG complex from reduced, denatured PapG; format: biochemical, E. coli; conditions: PapD incubated with increasing amounts of peptide
T2 construct: made in house
T2 sequence (P15319 22-239): T1 sequence (P15319 22-239)
Protocol: B: PapD incubated with the G1'-19'WT, G1'-16'WT, K1'-19'WT, and G2'-21'amide was added to reduced, denatured PapD-PapG and the amount of PapD-PapG complex restored in each sample was quantitated as described in example 2. The % inhibition represents the amount of the PapD-PapG complex restored with peptide-treated PapD compared to the amount of PapD-PapG complex restored with untreated PapD. The graph represent the average of 4 experiments. PapD and PapD-PapG complex were prepared as described in F. Lindberg et al, J. Bacteriol. 171, 6052 (1989) and S. J. Hultgren et al., Proc. Natl. Acad. Sci. U.S.A. 86, 4357 (1989).
FIG. 7: Ability of PapD Arg-8, Lys-112 and Thr-7 mutants to bind PapG and restore the PapD-PapG complex in vitro. 0.4 μg of PapD-PapG complex was reduced and denatured as described in FIG. 2B. The denatured PapD-PapG complex was then diluted with 0-630 ng purified wild type (WT) or mutant PapD. The amount of PapD-PapG restored in the samples was determined as in FIG. 2B and was graphed as a percentage of the greatest amount of PapD-PapG restored. The values graphed represent the average of 3 experiments. Wild type and mutant PapD and the PapD-PapG complex were purified as described in F. Lindberg et al, J. Bacteriol. 171, 6052 (1989) and S. J. Hultgren et al., Proc. Natl. Acad. Sci. U.S.A. 86, 4357 (1989).
As described in Kuehn et al., Proc. Natl. Acad. Sci. U.S.A. 88, 10586 (1991), native PapD is able to bind to reduced, denatured PapG and restore the PapD-PapG complex in vitro. This reconstitution assay was used to determine the ability of the peptides to inhibit PapD activity in vitro.
The PapD-peptide solution was then added to the reduced, denatured PapD-PapG, incubated at 25° C. for 10 min, and applied to an IEF 3-9 gel (Pharmacia). The amount of PapD-PapG restored in each sample was quantitated by densitometry of the silver stained IEF band corresponding to the pI of the DG complex.

[7] = system: HB101/pPAP37; assay: Hemagglutination titer of PapD mutants; format: cell-based, E. coli; conditions: induction with 0.01 mM IPTG; greatest bacterial dilution which still agglutinates erythrocytes
Protocol: *The hemagglutionation (HA) titer was quantitated after induction with
0.01 mM IPTG. The HA titer represents the greatest bacterial dilution
which still agglutinates erythrocytes. HB101/pPAP37 expressing wild type
PapD has an HA titer of 128.

H-SGSMTMVLSFP-OH [G1'-11'WT, NH2--SGSMTMVLSFP--COOH]
water solubility [1]: * | inhibition of binding of PapD to MBP-G1'-140' fusion protein [2]: significantly more potent | binding of PapD to immobilized peptide [3]: binds

NH2--EEGKRKPGELSGSMTMVLSF--CONH2 (H-EEGKRKPGELSGSMTMVLSF-NH2) [G2'-21'amide]
% Inhibition [4]: 0% | inhibition of PapD binding to immobilized G1'-19'WT by soluble peptide [4]: abolished binding | rate of tryptic cleavage of PapD [5]: no effect | inhibition of restoration of the PapD-PapG complex by PapD [6]: no effect | binding of PapD to immobilized peptide [3]: reduced binding | reduction of binding of PapD to the immobilized peptide [3]: approximately 75%

NH2--GILNGGDFQTTASMAMIYN--COOH (H-GILNGGDFQTTASMAMIYN-OH) [F1'-19'WT]
binding of PapD to immobilized peptide [3]: moderately

NH2--GKRKPGELSGSMTMVLSFP--CONH2 (H-GKRKPGELSGSMTMVLSFP-NH2) [G1'-19'amide]
% Inhibition [4]: 56% | inhibition of PapD binding to immobilized G1'-19'WT by soluble peptide [4]: did not affect binding | binding of PapD to immobilized peptide [3]: did not affect binding

NH2--GKRKPGELSGSMTMVLSFP--COOH (H-GKRKPGELSGSMTMVLSFP-OH) [G1'-19'WT, 19 carboxyl terminal residues of PapG]
% Inhibition [4]: 63% | rate of tryptic cleavage of PapD [5]: decreased; also recorded: reduced the rate of tryptic cleavage | inhibition of restoration of the PapD-PapG complex by PapD [6]: inhibit restoration | binding of PapD to immobilized peptide [3]: bound well

NH2--GKRKPVELSGSMTMVLSSP--COOH (H-GKRKPVELSGSMTMVLSSP-OH) [G1'-19'SV]
inhibition of PapD binding to immobilized G1'-19'WT by soluble peptide [4]: as efficient a soluble PapD inhibitor as the peptide G1'-19'WT | reduction of binding of PapD to the immobilized peptide [3]: 36%

NH2--KKLEAGNYFAVLGFRVDYE--COOH (H-KKLEAGNYFAVLGFRVDYE-OH) [H1'-19'WT]
binding of PapD to immobilized peptide [3]: no binding

NH2--KSVVPGDYEATATFELTYR--COOH (H-KSVVPGDYEATATFELTYR-OH) [K1'-19'WT]
rate of tryptic cleavage of PapD [5]: decreased; also recorded: reduced the rate of tryptic cleavage | inhibition of restoration of the PapD-PapG complex by PapD [6]: inhibit restoration | binding of PapD to immobilized peptide [3]: moderately

NH2--QNLIAGPFSATATLVASYS--COOH (H-QNLIAGPFSATATLVASYS-OH) [E1'-19'WT]
water solubility [1]: * | binding of PapD to immobilized peptide [3]: moderately

NH2--YALAPNAVIPTSLALL--COOH (H-YALAPNAVIPTSLALL-OH) [MS, random hydrophobic peptide, reference compound]
% Inhibition [4]: 1% | binding of PapD to immobilized peptide [3]: no binding

B1: wild type PapD: wild type periplasmic chaperone PapD (protein, UniProt P15319 22-239, looked up)
Chaperone protein PapD: T1 sequence (P15319 22-239)
HA titer [7]: 128
